According to the supplement of paper PMC9170038:

Tested on: MS2 coat protein
Assay: apparent KD of MS2 coat protein; designed switch direction (-1 OFF switch, 1 ON switch): -1; higher = weaker reporter binding
In short: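 An oligonucleotide input, 200 uM small-molecule ligand, or no input was present during titration of SNAP-549-labelled MS2 coat protein, which was doubled from 0.7 or 1.5 nM to 3 µM. Designed RNA switches had been transcribed on Illumina chips by stalled E. coli RNA polymerase. Apparent KD per design is the median over clusters of curves fitted to normalised cluster fluorescence.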

[1] = Eterna round: R95, input ligand: microRNA oligo, concentration not stated
[2] = input ligand: microRNA oligo, concentration not stated
[3] = Eterna round: R95, input ligand: FMN 200 uM
[4] = Eterna round: R95, input ligand: none

Row | Sequence | apparent KD of MS2 coat protein (input ligand: FMN 200 uM) | apparent KD of MS2 coat protein (input ligand: none) | apparent KD of MS2 coat protein [1] | apparent KD of MS2 coat protein [2] | apparent KD of MS2 coat protein [3] | apparent KD of MS2 coat protein [4]
1 | UCUCGGACAGGAUAUCUGUCAUCUGACAUGAGGAUCACCCAUGUCCUCGCCGCCAACCCAAGAGAAGGGUCCCACA [Eternabot (L1) Solution 76] (Eterna round: R97, puzzle: Exclusion 5) | 99.2 nM | 120 nM | – | – | – | –
2 | UUUGUUGUUGUGAGGAUAUCGUUGUUAUUUUGAAACGAGAAGGCACAUGAGGAUCACCCAUGUUUGUUGAUGGU [JR_BMOE4_Sub060] (puzzle: Brourd's mod of Exclusion 4) | – | – | 41.5 nM | – | – | –
3 | GUCGUGUAAGGAUAUGCAUCGAGGUAGCGAAUGUUGCAGGUGUAGAAGGUACAUGAGGAUCACCCAUGUAAUGU [Exclusion 4 - An extended Mod of Jieux] (puzzle: Exclusion 4) | – | – | 20.2 nM | – | – | –
4 | GGGUGCAGGCUAAGAUCCUACAUGAGGAUCACCCAUGUGGUCCGGUGACGUGAGUCACCGGACUUAGCUCGUCUUGU [salish99_S_TOV1_R5_006] (Eterna round: R97, puzzle: Sensor, turn-off variant 1) | 133 nM | 142 nM | – | – | – | –
5 | CGCUGGACAGGAUAUGUUCUUGGGCACUUGAGGAUCACCCAAGUCAUCAAGAAAACAGGCACAGAAGGGUUUAUGG [salish99_ex5_r4_020] (Eterna round: R97, puzzle: Exclusion 5) | 32.1 nM | 24.1 nM | – | – | – | –
6 | CAAGUGCCGGAAGGAUAUCAGCGAUGUCACGCUUGAGAAGGUCUGUGCACAUGAGGAUCACCCAUGUCCGCCAGACUCCUUAAC [Eternabot solution 21] (Eterna round: R96, puzzle: Exclusion NG 1) | – | – | – | 7.68 nM | – | –
7 | GGGAACGUAGGAUAUACAUGAGGAUCACCCAUGUGAGGAAGGAGUAGGAAGCGUGGAAGUAGAAGGACGGAGAG [JR_Exclu3_Sub074] (puzzle: Exclusion 3) | – | – | 31.5 nM | – | 40.6 nM | 46.4 nM
8 | CGGAGUUAGGAGGAUAUGACGAACGCACGUCGUUCAGAAGGCCUAACAUGAGGAUCACCCAUGUGCUUAACACG [Eternabot (L2) Solution 59] (Eterna round: R97, puzzle: Exclusion 6) | 48.7 nM | 35.7 nM | – | – | – | –
9 | GUAGAGUAAGGAUAUGUUGAAUAGGAUAGAAUGGUUAGAAAGCAGAAGGUACAUGAGGAUCACCCAUGUAAUGU [Excluse me!!!! 14 - Jieux - Exclusion 4] (puzzle: Exclusion 4) | – | – | 21.4 nM | – | – | –
10 | GAAAAGGGAGGAUAUACAAGAAGAAAAGAAAAGAAAAGAAAACAUGAGGAUCACCCAUGUAGAAGGCCCAAAAG [Default title] (puzzle: Exclusion 2) | – | – | 18.7 nM | – | 22.6 nM | 23.8 nM
11 | ACGCCUCCUGUUAGGAUAUGCAUCGGGCUUCCGCAGCAGAAGGAACAUGAGGAUCACCCAUGUCAAAUAAAAUC [Raleed] (puzzle: Brourd's mod of Exclusion 4) | – | – | 17 nM | – | – | –
12 | CCAGGGCACAAUUAAACGCCCUAACAUGAGGAUCACCCAUGUCAGGAUAUGUAGGCAAAGACCCUACAGAAGGGACAUGUCCUA [Xegeat] (Eterna round: R96, puzzle: Exclusion NG 3) | 217 nM | 49.9 nM | – | 76.1 nM | – | –
13 | UAACUGUGAGGAUAUUCGUAGUACACGGAGACGUGUAUUACGGAGAAGGCACAUGAGGAUCACCCAUGUUCCUU [Default title] (Eterna round: R97, puzzle: Exclusion 4) | 75.6 nM | 17.4 nM | – | – | – | –
14 | UAACAAAUUGUCAGGAUAUCAAUCCCGGCCCAGAUUGAGAAGGGACAUGAGGAUCACCCAUGUAUGAUUCUCAA [jl-ex4-4.51 ViennaUCT mod] (Eterna round: R97, puzzle: Brourd's mod of Exclusion 4) | 65.4 nM | 31.9 nM | – | – | – | –
15 | ACAUGAGGAUCACCCAUGUAAUCAUGAUGGCUGAUGUAGAGCUAGGAUAUGAGUGGCUUUCUAUCUCAGAAGGAGCAAGACUGG [Deportation 40 - Jieux - Exclusion NG 3] (Eterna round: R96, puzzle: Exclusion NG 3) | 44.1 nM | 36.8 nM | – | 31.6 nM | – | –
16 | AAGAUGUGAGGAUAUCACGAGAGCGUCACACGGACGCCCUCUGAGAAGGCACAUGAGGAUCACCCAUGUCCAAA [EX4 A.22] (Eterna round: R97, puzzle: Exclusion 4) | 387 nM | 65 nM | – | – | – | –
17 | GGCAUCAUCUGGUCCUGAUACAUGAGGAUCACCCAUGUUCUACUGUAGGUCGUAAGCAGCUUACCCUCUUAGGCACA [JR_Sensorv2_tov_Sub1249] (Eterna round: R96, puzzle: Sensor v2, turn-off variant) | 380 nM | 308 nM | – | 227 nM | – | –

Row | Sequence | apparent KD of MS2 coat protein (input ligand: FMN 200 uM) | apparent KD of MS2 coat protein (input ligand: none) | apparent KD of MS2 coat protein [1] | apparent KD of MS2 coat protein [2] | apparent KD of MS2 coat protein [3] | apparent KD of MS2 coat protein [4]
18 | CGUCUGUGAGGAUAUGGUAUCGUUUACAUGAGGAUCACCCAUGUUACAUGGGACUAGAGACUAGAAGGUACGGACG [EX5 #48] (Eterna round: R97, puzzle: Exclusion 5) | 461 nM | 391 nM | – | – | – | –
19 | GCACUGCGAGGAUAUACAUGAGGAUCACCCAUGUAUCGGUAGUCAAGGUUAAUUUAAGGUAGAAGGCGCGUAAA [JR_Ex3_Sub005] (Eterna round: R97, puzzle: Exclusion 3) | 27.4 nM | 23.5 nM | – | – | – | –
20 | GUGAGAUAGUUAGUGGACGACAUGAGGAUCACCCAUGUGAGGGAAAUGUUAAGGAGAAAGCUUUUUGCUCGUCUUUA [JR_SV3TOV1_Sub035] (puzzle: Sensor v3, turn-off variant 1) | – | – | 70.4 nM | – | 98.9 nM | 180 nM
21 | UGUUGUUGCGUAGGAUAUUGCCAACAGGCAGUAGGAUAUGCGAAAGCAGAAGGACCGCCAACAGGCGAGAAGGACGGGACAACU [pwkr exNG2 2xF7 2xFMN.13] (Eterna round: R96, puzzle: Exclusion NG 2) | 177 nM | 72.6 nM | – | 39.4 nM | – | –
22 | GGUGCUGGCGCGUCGGUGUUGGUGCAAUAAGCUUGUGAAACAUGAGGAUCACCCAUGUCCUCAUAAGCUCGUCUUGU [salish99_TOv2_r2_087] (puzzle: Sensor v3, turn-off variant 2) | – | – | 283 nM | – | 14.4 nM | 12.8 nM
23 | AUAAGUAUGAAGGAUAUGCGCGAGCCAGCUUGGGCAGAAGGUUAAACAUGAGGAUCACCCAUGUGGAAAUCCGA [Eternabot (Original) Solution 34] (Eterna round: R97, puzzle: Exclusion 6) | 32.9 nM | 21.7 nM | – | – | – | –
24 | AGCGCCAUGCUCGUCUUACACAUGAGGAUCACCCAUGUUGGGUCUCAGAUGCGGUAAUAGCCCGUUGAAUCUAGUGG [Eternabot (L1) Solution 38] (Eterna round: R97, puzzle: Sensor, turn-off variant 1) | 182 nM | 191 nM | – | – | – | –
25 | UAAUUUUUAGUAAGGAUAUCGGUCCCAAGGGACAACGAGAAGGUACAUGAGGAUCACCCAUGUUACGAAAGAAU [Mod of Zala 10 - Jieux - Brourd's Mod of Exclusion 4] (Eterna round: R97, puzzle: Brourd's mod of Exclusion 4) | 17.6 nM | 18 nM | – | – | – | –
26 | UAUUAGUAAGGAUAUGAGACGUAGGACGCAAGUCCUACGUCUCAGAAGGUACAUGAGGAUCACCCAUGUCUAUU [Mod of Fisker 10 - Jieux - Exclusion 4] (Eterna round: R97, puzzle: Exclusion 4) | 21.2 nM | 22.2 nM | – | – | – | –
27 | GGUUAACAUGAGGAUCACCCAUGUGAGGAUAUGUUCAGGAUGAUAAAUAGAAGAGAUAAUAGAAGGCACUUUGG [Bubbles5] (Eterna round: R97, puzzle: Exclusion 1) | 57.6 nM | 39.9 nM | – | – | – | –
28 | GGUCUACAUGAGGAUCACCCAUGUAAGGAUAUCUACAUUGAAGCUUCGGCUUCAAUGUAGAGAAGGUGCAUAAU [E1/11-B1] (Eterna round: R97, puzzle: Exclusion 1) | 37.3 nM | 31.4 nM | – | – | – | –
29 | GGUUGACAUGAGGAUCACCCAUGUGAGGAUAUGCGAGAGAAAAAAGUGAGGAAGGAAUGCAGAAGGCGCUGUCG [salish99-ex1_r3_018] (puzzle: Exclusion 1) | – | – | 54.3 nM | – | 43.3 nM | 57.7 nM
30 | AAGAGCGUAGGAUAUACAUGAGGAUCACCCAUGUGUGGAGGACCUGGCCACAUAAGGAGUAGAAGGGCGCAUCU [Eternabot (L2) Solution 92] (Eterna round: R97, puzzle: Exclusion 3) | 110 nM | 87 nM | – | – | – | –
31 | GGGUGACAUGAGGAUCACCCAUGUCAGGAUAUGCUUCGGCUUCGGAAAUGAAGUUGAAGUAGAAGGGACUGCCC [-30.1, -29.1 kcal, A 27% sequence 3 bis] (Eterna round: R97, puzzle: Exclusion 1) | 84.4 nM | 42.2 nM | – | – | – | –
32 | CUUAAUUGUCACAUGGGUGACAUGAGGAUCACCCAUGUCACAAGCUUUUUGCUCGUCUUAUAAUUAACCCAUGUGAC [Stov1/12-A3] (Eterna round: R97, puzzle: Sensor, turn-off variant 1) | 13.7 nM | 13.3 nM | – | – | – | –
33 | AAGAACGUGCAAGGAUAUCUCCACCAAACCGGCAGAGAAGGUGCACAUGAGGAUCACCCAUGUGACCUAAGGCUCUUAUGAGCC [Teismace] (Eterna round: R96, puzzle: Exclusion NG 1) | 46.6 nM | 18.5 nM | – | 14.6 nM | – | –
34 | GCUGGUCGAGGAUAUACAUGAGGAUCACCCAUGUGGUCACGUGACGAUAGUCACGAAUGUAGAAGGUGACCAGC [E3/3-B1] (Eterna round: R97, puzzle: Exclusion 3) | 107 nM | 1760 nM | – | – | – | –
